According to patent US20160311878A1 (SAMSUNG ELECTRONICS, published 2016):

Target: T1, full-length HDM2 (NP_002383.2) (human, UniProt Q00987-11 1-497, limits assumed)
T1 construct: it was coated on the ELISA plate at 20 ug/ml; also called full-length MDM2
Test: ELISA; full-length HDM2 coated on plate, GST fusion at 0-5.5 uM, anti-GST-HRP detection (FIG. 4)
Experimental: The well was incubated overnight at 4° C. Thereafter, bindings between other proteins were blocked with 300 ul of 3% skim milk w/PBS-T (at room temperature for 3 hours).
One hour after, the plate was washed with 300 uL of PBS-T, and treated with 100 uL of HRP conjugated-anti-GST antibody (Abcam, 1:2000). After the reaction at room temperature for one hour, the plate was treated with TMB substrate (Pierce, 100 uL) and left for 5 minute until coloring reaction occur, and then, treated with stop solution (Pierce, 100 uL). Thereafter, absorbance at 450 nm was measured using microwell reader (Molecular Device, 340PC384).

T1 sequence (Q00987 other isoform, or with tags, fused parts or gaps limits assumed): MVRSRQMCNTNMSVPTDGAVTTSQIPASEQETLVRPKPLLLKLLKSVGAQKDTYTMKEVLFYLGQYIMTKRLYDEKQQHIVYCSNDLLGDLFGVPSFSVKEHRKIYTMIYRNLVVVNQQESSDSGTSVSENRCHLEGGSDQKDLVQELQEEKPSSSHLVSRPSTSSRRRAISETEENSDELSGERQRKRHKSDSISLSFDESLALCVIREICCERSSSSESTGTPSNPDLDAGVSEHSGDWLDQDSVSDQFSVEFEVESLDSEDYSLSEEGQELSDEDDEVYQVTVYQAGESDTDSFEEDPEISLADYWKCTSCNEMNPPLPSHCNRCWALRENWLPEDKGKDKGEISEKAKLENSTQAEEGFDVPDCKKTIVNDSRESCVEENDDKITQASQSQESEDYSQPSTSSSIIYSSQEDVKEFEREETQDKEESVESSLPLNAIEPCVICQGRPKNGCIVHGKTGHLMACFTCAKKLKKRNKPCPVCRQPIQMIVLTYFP

| Binder | binding result |
| --- | --- |
| GST-M11 (modified three-helix bundle protein M11, an a3D variant, fused to GST) (designed binder, Tested as a GST fusion in ELISA and detected with an HRP-conjugated anti-GST antibody; GST is placed at the N-terminus from the name GST-M11 and the pGEX vector; not shown: GST carrier (from the GST cds of pGEX-4T3, GE Healthcare) and the vector junction between GST and M11) MGSWAEFSQRLFAIYWRLLALGGSEAELAAFEKEIAAFESELQAYKGKGNPEVEALRKEAAAIRDELQAYRHN | binds |
| GST-M25 (modified three-helix bundle protein M25, an a3D variant, fused to GST) (designed binder, Tested as a GST fusion in ELISA and detected with an HRP-conjugated anti-GST antibody; GST is placed at the N-terminus from the name GST-M25 and the pGEX vector; not shown: GST carrier (from the GST cds of pGEX-4T3, GE Healthcare) and the vector junction between GST and M25) MGSWFEFAWRLLEIKTRLQALGGSEAELAAFEKEIAAFESELQAYKGKGNPEVEALRFEAYWIRLELQAYRHN | binds |
